Substitutions are numbered along the chain they refer to.

T1: human CD112R on Jurkat CD112R effector cells (human, UniProt Q6DKI7 1-326)
T1 sequence (looked up): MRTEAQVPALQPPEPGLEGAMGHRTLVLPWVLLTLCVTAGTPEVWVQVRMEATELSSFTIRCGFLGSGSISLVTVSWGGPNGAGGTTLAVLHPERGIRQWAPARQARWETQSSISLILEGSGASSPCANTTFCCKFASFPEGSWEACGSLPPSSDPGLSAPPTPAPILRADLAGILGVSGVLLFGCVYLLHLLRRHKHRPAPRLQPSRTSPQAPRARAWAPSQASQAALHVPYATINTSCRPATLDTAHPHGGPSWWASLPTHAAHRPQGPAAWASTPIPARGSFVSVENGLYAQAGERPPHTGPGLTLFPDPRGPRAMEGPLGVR

T2: human CD112R on CHO-CD112R cells (human, UniProt Q6DKI7 41-326)
T2 construct: whole, on cells; also called hCD112R; PVRIG
T2 sequence (looked up): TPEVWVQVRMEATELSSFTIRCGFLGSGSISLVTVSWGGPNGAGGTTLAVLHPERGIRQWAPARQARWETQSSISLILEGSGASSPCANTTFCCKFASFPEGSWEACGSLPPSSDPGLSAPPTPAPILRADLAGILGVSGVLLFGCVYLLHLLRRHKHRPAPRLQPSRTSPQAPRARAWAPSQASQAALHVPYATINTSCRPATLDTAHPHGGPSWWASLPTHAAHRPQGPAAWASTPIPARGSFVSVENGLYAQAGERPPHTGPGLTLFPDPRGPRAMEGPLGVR

T3: recombinant cynomolgus monkey CD112R antigen (cynomolgus monkey, UniProt A0A2K5WVV8 1-322)
T3 construct: bought
T3 sequence: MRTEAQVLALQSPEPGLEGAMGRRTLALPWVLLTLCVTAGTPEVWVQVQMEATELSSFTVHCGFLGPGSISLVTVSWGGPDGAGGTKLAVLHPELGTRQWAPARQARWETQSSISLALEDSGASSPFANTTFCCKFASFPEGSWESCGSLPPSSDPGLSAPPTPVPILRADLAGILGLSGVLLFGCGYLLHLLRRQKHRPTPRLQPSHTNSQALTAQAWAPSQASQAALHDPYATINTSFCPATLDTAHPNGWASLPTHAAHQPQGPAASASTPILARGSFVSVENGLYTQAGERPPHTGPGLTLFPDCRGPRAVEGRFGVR

T4: hCD112R mFC recombinant protein (human; murine, UniProt Q6DKI7 41-160)
T4 construct: range 41-160; expressed in 293E cells; also called hCD112R ECD mFC; hCD112R-ECD-mFC; not shown: murine IgG2a Fc domain (MX2-mFc vector)
T4 sequence (looked up): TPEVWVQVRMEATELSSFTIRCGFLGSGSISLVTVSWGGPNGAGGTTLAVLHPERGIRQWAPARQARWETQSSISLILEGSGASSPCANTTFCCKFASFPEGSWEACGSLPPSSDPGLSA

B1: Chi-36 (antibody, V domains shown)
VH: EVQLQQSGPELVKPGASVRISCKASGYTFTDYNMHWVKQSHGKSLEWIGYIYPYNGGTGHNQNFKSKATLTVDKSSSTAYMEFRSLTSDDSAVYYCAREDFRHEKMDYWGQGTSVTVSS
VL: DIQMTQSPASLSASVGETVTITCRTSDNIYVYLSWYQQKQGKSPQLLVYNAKTLTENVPSRFSGSGSGTQFSLKINSLQPEDFGSYYCQHHYGTPYTFGGGTKLEIK
notes: chimeric
B2: Chi-45 (antibody, V domains shown)
VH: DVKLVESGGGLVKLGGSLKLSCAASGFTFSSYHMSWVRQTPEKRLELVAAINSNVISTYYLDTVKGRFTISRDNAKNTLYLQMSSLKSEDTALYYCARHEDYYGFAMDYWGQGTSVTVSS
VL: SIVMTQTPKFLLVSAGDRVTITCKASQSVSNDVAWYQEKPGQSPKLLMYYVSHRFTGVPDRFTGSGYGTDFTFTINTVQAEDLAVYFCHQAYRSPWTFGGGTKLEIK
notes: chimeric
B3: Chi-54 (antibody, V domains shown)
VH: B2 VH with V37I, V55G, S57N
VL: B2 VL with E38Q, H53N, H89Q
notes: chimeric
B4: Chi-63 (antibody, V domains shown)
VH: DVKLVESGGGLVKLGGSLKLSCAASGFTFSSYHMSWVRQTPEKRLELVAAISRDGDSTYYPDTVKGRFTISRDDAENTLYLQMSSLKSEDTALYYCSRHEDYFGFAMDSWGQGTSVTVSS
VL: B2 VL with S30T, E38Q, H53N, R54H, F55Y, T63I, N76S, H89Q
notes: chimeric
B5: Chi-46 (antibody, V domains shown)
VH: B2 VH
VL: B2 VL with E38Q, H53N, H89Q
notes: chimeric
B6: Chi-47 (antibody, V domains shown)
VH: B2 VH
VL: B2 VL with S30T, E38Q, H53N, R54H, F55Y, T63I, N76S, H89Q
notes: chimeric
B7: Chi-72 (antibody, V domains shown)
VH: B2 VH with K3Q, A23V, V37I, V55D, S57N, N74I, Y80H
VL: DIQLTQSPASLSVSVGETVTITCRVSANIYSNLVWYHQRQGKSPQLLVYGGTNLADGVPSRFSGSGSGTQFSLKINSLQSEDFGSYHCQHFWSTPYTFGGGTKLEIK
notes: chimeric
B8: 8H8.1 (antibody, V domains shown)
VH: EVKLVESGGGLVKPGGSLKVSCAASGFTFSDYPMSWVRQTPDKRLEWVACIDTDENTYYPDSVKGRFTISRDNGRNIVNLQMSSLRSEDAAMYYCARGWDDYAAWFAYWGQGTLVTVSA
VL: ENVLTQFPAIMSVFLGERVTMSCRASSSVNYMYWYQQKSDASPKLWIYHTSNLAPGVPARFSGSGSGNSYSLTISSMEGEDAATYYCQQFTSSPWTFGGGTKLEIK
notes: murine hybridoma antibody

The target of the first experiment is T1, human CD112R on Jurkat CD112R effector …. Nature of the experiment: cell-based or functional assay.
With B1, the “EC50, CD112R/CD112 reporter” value was 30.6 ng/mL and the “Relative activity (%), EC50 Ref/EC50 antibody” value was 1060%.

Take B2: the “EC50, CD112R/CD112 reporter” value amounted to 11.9 ng/mL and the “Relative activity (%), EC50 Ref/EC50 antibody” value amounted to 2710%.

Take B3: the “EC50, CD112R/CD112 reporter” value was found to be 7.46 ng/mL and the “Relative activity (%), EC50 Ref/EC50 antibody” value came to 4210%.

Regarding B4, the “EC50, CD112R/CD112 reporter” value was determined as 17.4 ng/mL and the “Relative activity (%), EC50 Ref/EC50 antibody” value turned out to be 1490%.

B5: the “EC50, CD112R/CD112 reporter” value came to 7.01 ng/mL and the “Relative activity (%), EC50 Ref/EC50 antibody” value came to 4610%.

As for B6, the “EC50, CD112R/CD112 reporter” value turned out to be 14 ng/mL and the “Relative activity (%), EC50 Ref/EC50 antibody” value turned out to be 2230%.

The next experiment has as its target T2, human CD112R on CHO-CD112R cells. Nature of the experiment: FACS on CHO-CD112R cells. As to the method:
(§1) CHO-CD112R cells (constructed in-house by Junshi, the amino acid sequence of CD112R in the construction of stable cell lines overexpressing CD112R comprises amino acids at positions Met1-Arg326 under NCBI accession No. Q6DKI7) overexpressing human CD112R were incubated with each of the chimeric anti-CD112R antibodies at different concentrations (initial concentration: 50 μg/mL, 5-fold dilution, 12 concentration gradients in total) at 4° C. for 30 min, and then washed and incubated with a fluorescence-labeled secondary antibody at 4° C. for 30 min in the dark. Finally, the cells were collected by using a flow cytometer (BD Canto II), and the fluorescent antibodies bound to the cell surface were detected. Raw data were analyzed by using FlowJo to obtain MFI values, the antibody dose-dependent binding curves were fitted by using GraphPad (FIG. 3, a and b) and EC₅₀ was calculated (Table 3). The positive control and the negative control were Ref (anti-CD112R antibody, University of Colorado, obtained by expression and purification according to the sequences in US20170240613) and anti-KLH hu-IgG4 antibody, respectively.
Consider B1, for which a half-maximal response (EC50) required 0.351 µg/mL.

Consider B2, for which the EC50 was found to be 0.726 µg/mL.

On to B7, for which the response was half-maximal at 12.3 µg/mL (EC50).

The molecule B3 came in with an EC50 of 0.122 µg/mL.

Consider B4, for which it took 0.531 µg/mL to reach a half-maximal effect (EC50).

B5 had an EC50 of 0.433 µg/mL.

The molecule B6 showed an EC50 of 0.28 µg/mL.

The next experiment concerns the target T3, recombinant cynomolgus monkey CD112R …. Nature of the experiment: ELISA, coated cynomolgus monkey CD112R. As to the method:
(§2) A plate was coated with a recombinant cynomolgus monkey CD112R antigen (Acrobiosystems, Cat No. PVG-C5259) at a fixed concentration, and the chimeric anti-CD112R antibodies diluted in a gradient (initial concentration: 1 μg/mL, 2.5-fold gradient dilution, 12 concentration gradients in total) were added to bind to the antigen. Horseradish peroxidase (HRP)-conjugated mouse anti-human IgG4 Fc (Southern Biotech, 9200-05) was subjected to a 5000-fold dilution and used as a detection antibody for detection. The color development was performed with 0.1 mg/mL TMB, and finally stopped with 2 M hydrochloric acid. The plate was read at 420 nm/620 nm. EC₅₀ was obtained by fitting with a four-parameter logistic regression (4PL) model.
(ELISA stands for enzyme-linked immunosorbent assay.)
For the molecule B1, the EC50 is 3.91 ng/mL.

For B2, the EC50 turned out to be 2.98 ng/mL.

With B3, the EC50 came out at 3.27 ng/mL.

As to B4, the EC50 was 4.36 ng/mL.

Take B5: the EC50 was found to be 3.26 ng/mL.

In the case of B6, the concentration giving a half-maximal response (EC50) stood at 3.09 ng/mL.

For another experiment, the target named is T2, human CD112R on CHO-CD112R cells. Nature of the experiment: FACS on CHO-CD112R cells; EC50 Ref/EC50 antibody. As to the method: as §1
For the molecule B1, the “Relative activity (%)” value worked out at 478%.

As for B2, the “Relative activity (%)” value came to 231%.

As to B7, the “Relative activity (%)” value was found to be 35%.

With B3, the “Relative activity (%)” value was 3520%.

With B4, the “Relative activity (%)” value stood at 805%.

B5: the “Relative activity (%)” value was 388%.

Take B6: the “Relative activity (%)” value was 600%.

Another experiment deals with T4, hCD112R mFC recombinant protein. Nature of the experiment: FACS competition, hCD112R mFc on CHO CD112 cells. As to the method:
(§3) Cells CHO CD112 overexpressing human CD112 were co-incubated with a hCD112R mFc protein solution (5 μg/mL) prepared in a staining buffer (PBS+1% FBS), and the chimeric anti-CD112R antibodies or the control antibodies at different concentrations (initial concentration: 100 μg/mL, 3-fold dilution, 10 concentration gradients) at 4° C. for 30 min. Unbound antibodies were then washed with a staining buffer and the cells were incubated with 1% (v/v) goat anti-mouse IgG Fc fluorescent secondary antibodies (Jackson ImmunoResearch) prepared in a staining buffer at 4° C. for 30 min in the dark. Finally, the cells were collected by using a flow cytometer (BD Canto II), and the fluorescent antibodies bound to the cell surface were detected. Raw data were analyzed by using FlowJo to obtain MFI values, and a four-parameter curve fitting was performed by using GraphPad Prism software to obtain IC₅₀ values. The positive control and the negative control were Ref (anti-CD112R antibody, University of Colorado, obtained by expression and purification according to the sequences in US20170240613) and the anti-KLH hu-IgG4 antibody, respectively.
As shown in FIG. 5 (a and b) and Table 8, the following 13 chimeric antibodies were all capable of effectively blocking the binding of the CD112R protein to CHO-CD112 cells.
As to B5, the IC50 was found to be 0.8 µg/mL.

Regarding B6, the IC50 was 0.876 µg/mL.

The target is the same in the next experiment. Nature of the experiment: Biacore T200, antibody captured, hCD112R mFc injected. As to the method:
Biacore T200 was used to assay the binding affinity of the anti-CD112R hybridoma antibodies for the recombinant hCD112R mFc protein. […] antibody fragments (Jackson ImmunoResearch) were coupled to the surface of a CM5 chip, and the anti-CD112R hybridoma antibodies were each captured by using the chip, after which recombinant hCD112R mFc proteins at different concentrations were injected into the CM5 chip.
On the technique in general: Surface plasmon resonance follows binding to a sensor surface in real time, without labels.
Consider B8, for which the Kd was 0.0588 nM.

The next experiment deals with T3, recombinant cynomolgus monkey CD112R …. Put plainly: ELISA, coated cynomolgus monkey CD112R; EC50 Ref/EC50 antibody. As to the method: as §2
As to B1, the “Relative activity (%)” value was found to be 89.6%.

For the molecule B2, the “Relative activity (%)” value was 118%.

Regarding B3, the “Relative activity (%)” value came to 107%.

As for B4, the “Relative activity (%)” value is 96.1%.

Regarding B5, the “Relative activity (%)” value was determined as 107%.

Take B6: the “Relative activity (%)” value was 113%.

Another experiment concerns the target T4, hCD112R mFC recombinant protein. Put plainly: FACS competition, hCD112R mFc on CHO CD112 cells; ratio Ref/antibody. As to the method:
as §3
On to B5, for which the “Relative activity (%)” value was determined as 132%.

For the molecule B6, the “Relative activity (%)” value was 121%.

Another experiment shares this target. Put plainly: FACS blocking: hCD112R mFc (5 µg/mL) binding to human CD112 on CHO CD112 cells, MFI-APC; unit from the axis (µg/mL), Table 8 says ng/ml. As to the method:
as §3
On to B5, for which the IC50 came to 0.8 µg/mL.

As to B6, the IC50 is 0.876 µg/mL.

The term EC50 denotes the concentration at which the effect is half-maximal. A word on the IC50: it is the concentration that gives 50% inhibition. For orientation: Kd means a measure of binding affinity in units of concentration.

Source of the values: US20240309087A1 (SHANGHAI JUNSHI BIOSCIENCES, published 2024).
